Measured values taken from the supplement of paper PMC10126150.
± gives the standard deviation of the averaged measurements.

These sequences were tested on ATP (assay: switch fluorescence ratio, 500 uM ATP over buffer (Cy3 cluster intensity, sum of 5 cycles each) (fold (ratio)); higher = stronger signal-on switching upon ATP binding; sequences stand for … in TCGTCGGCAGCGTCAGATGTGTATAAGAGACAGTTTTTTTTTTTTTTTTTTTTTTTTT…TC). Conditions: aptamer strand: ATP DNA aptamer (quencher-CACCTGGGGGAGTATTGCGGAGGAAGG + anchor), 100 nM annealed; ATP concentration: 500 uM.
Method in brief: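 Switching-strand clusters labelled with Cy3 on a modified Illumina MiSeq flow-cell were annealed to 100 nM quencher-labelled ATP aptamer, imaged in selection buffer, and re-imaged after 15 min with 500 uM ATP at 22 °C. This was done over five cycles with NaOH stripping and re-annealing in between. The fluorescence ratio is summed target-cycle over summed buffer-cycle Cy3 intensity per cluster, averaged per switch-domain sequence, excluding clusters outside 100-1000 RFU.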
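Further: ATP exposure 15 min at 22 °C before imaging.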

Sequence | switch fluorescence ratio
CGGTATTCTT | 0.9883 ± 0.0068
CGGTATTTAA | 1.02 ± 0.046
CGGTATTTAC | 1.04 ± 0.021
CGGTCAACAC | 1.66 ± 0.15
CGGTCAAGAG | 1.11 ± 0.019
CGGTCATAAG | 0.982 ± 0.043
CGGTCCAATC | 1.37 ± 0.052
CGGTCCCTGC | 1.01 ± 0.1
CGGTCCGGGT | 0.99721 ± 0.00018
CGGTCGGAGG | 0.974 ± 0.023
CGGTCGGGGG | 0.999 ± 0.032
CGGTCTGTGG | 0.995 ± 0.021
CGGTCTGTT | 0.9878 ± 0.0066
CGGTCTTCAT | 0.9903 ± 0.00043
CGGTGAATTT | 0.98263 ± 0.0009
CGGTGCGGGC | 1 ± 0.09
CGGTGCTGGG | 0.999 ± 0.04
CGGTGGAGGG | 0.9849 ± 0.0091
CGGTGGATTC | 1.0049 ± 0.00055
CGGTGGGCGA | 0.987 ± 0.048
CGGTGGGGGG | 1.04 ± 0.03
CGGTGGGTTG | 0.969 ± 0.053

Sequence | switch fluorescence ratio
CGGTGGTTGC | 1.03 ± 0.11
CGGTGTGGCT | 0.97 ± 0.016
CGGTGTGTGG | 0.999 ± 0.032
CGGTGTTGCC | 0.971 ± 0.011
CGGTTAAAAA | 0.982 ± 0.066
CGGTTAACCA | 1.02 ± 0.021
CGGTTAACGG | 1 ± 0.025
CGGTTAATTC | 1.012 ± 0.0028
CGGTTAGGCG | 1.06 ± 0.012
CGGTTATACT | 1.25 ± 0.021
CGGTTATCCT | 1.04 ± 0.032
CGGTTATGGA | 0.999 ± 0.026
CGGTTCATCC | 1.02 ± 0.014
CGGTTCCGTA | 0.971 ± 0.047
CGGTTCGGAT | 0.989 ± 0.017
CGGTTCGGTG | 0.981 ± 0.014
CGGTTCGTTA | 0.9795 ± 0.004
CGGTTGAGGT | 0.999 ± 0.047
CGGTTGCGGA | 0.995 ± 0.051
CGGTTGGCGG | 0.996 ± 0.038
CGGTTGGGCT | 1.01 ± 0.054
CGGTTGGGGC | 1.11 ± 0.057

Sequence | switch fluorescence ratio
CGGTTGTAGC | 1 ± 0.021
CGGTTGTAGT | 0.993 ± 0.032
CGGTTTATGC | 1.09 ± 0.052
CGGTTTGGGG | 0.991 ± 0.027
CGGTTTGGGT | 0.9931 ± 0.0043
CGGTTTTTAG | 1.01 ± 0.044
CGGTTTTTTC | 1.03 ± 0.027
CGTAAAATGA | 0.992 ± 0.022
CGTAAATTGT | 0.9672 ± 0.0039
CGTAAATTTA | 0.975 ± 0.018
CGTAACGGGA | 1.037 ± 0.0076
CGTAAGGCAG | 1 ± 0.038
CGTAAGGGTT | 1.008 ± 0.0063
CGTAAGTTTT | 0.98 ± 0.03
CGTACGGGCG | 0.956 ± 0.028
CGTACTCTCA | 1.037 ± 0.006
CGTACTTTTT | 1 ± 0.032
CGTAGACGGT | 0.9592 ± 0.0063
CGTAGACTTG | 0.9736 ± 0.005
CGTAGCACAG | 1.3067 ± 0.0013
CGTAGCATCG | 1.1 ± 0.038
CGTAGGGGGC | 1.03 ± 0.023

Sequence | switch fluorescence ratio
CGTAGGGGGT | 1.01 ± 0.03
CGTAGTAGGC | 1.12 ± 0.1
CGTAGTGAAG | 1.03 ± 0.037
CGTAGTGGAA | 0.9919 ± 0.0061
CGTAGTTCGT | 1.036 ± 0.0046
CGTATAGGAG | 1.02 ± 0.045
CGTATAGGTG | 1.06 ± 0.077
CGTATAGTTA | 0.987 ± 0.022
CGTATATTAA | 0.975 ± 0.068
CGTATCCACT | 0.99569 ± 0.00085
CGTATCTGAC | 1.04 ± 0.014
CGTATGGCCT | 0.958 ± 0.01
CGTATGGGGC | 0.948 ± 0.087
CGTATTGGGG | 1.04 ± 0.017
CGTATTTCTT | 0.989 ± 0.021
CGTATTTTT | 0.99 ± 0.018
CGTCAAAAAC | 1.38 ± 0.2
CGTCAATTGA | 1.01 ± 0.036
CGTCACATAA | 1.22 ± 0.016
